Test results from US7534862.

Columns and labels:
[1] = target: hyper-IL-6 (H-IL-6), a fusion protein comprising IL-6+sIL-6R (UniProt P08887); assay: cell-based or functional assay
[2] = target: IL-6/sIL-6R complex (100 ng/ml IL-6 + 50 ng/ml sIL-6R) (UniProt P05231); assay: cell-based or functional assay
Sequence of IL-6/sIL-6R complex (100 ng/ml IL-6 + 50 ng/ml sIL-6R) (P05231 30-212 limits assumed, chain 1 of 2): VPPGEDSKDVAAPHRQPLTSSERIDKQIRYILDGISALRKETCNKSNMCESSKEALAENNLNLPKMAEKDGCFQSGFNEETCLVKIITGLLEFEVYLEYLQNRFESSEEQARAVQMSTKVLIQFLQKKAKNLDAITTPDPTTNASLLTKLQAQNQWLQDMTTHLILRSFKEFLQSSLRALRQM
Sequence of IL-6/sIL-6R complex (100 ng/ml IL-6 + 50 ng/ml sIL-6R) (P08887 20-358 limits assumed, chain 2 of 2, further chain): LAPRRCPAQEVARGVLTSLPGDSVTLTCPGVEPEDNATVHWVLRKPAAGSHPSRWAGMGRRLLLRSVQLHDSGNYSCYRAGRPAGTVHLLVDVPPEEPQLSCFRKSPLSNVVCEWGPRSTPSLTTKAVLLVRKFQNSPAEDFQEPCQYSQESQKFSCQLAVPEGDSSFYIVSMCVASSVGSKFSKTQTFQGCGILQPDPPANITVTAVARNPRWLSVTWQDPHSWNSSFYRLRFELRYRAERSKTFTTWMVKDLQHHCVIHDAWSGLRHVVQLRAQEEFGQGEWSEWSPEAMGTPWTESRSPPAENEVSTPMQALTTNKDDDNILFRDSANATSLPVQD

Sequence of hyper-IL-6 (H-IL-6), a fusion protein comprising IL-6+sIL-6R (P08887 20-323 limits assumed, chain 1 of 2): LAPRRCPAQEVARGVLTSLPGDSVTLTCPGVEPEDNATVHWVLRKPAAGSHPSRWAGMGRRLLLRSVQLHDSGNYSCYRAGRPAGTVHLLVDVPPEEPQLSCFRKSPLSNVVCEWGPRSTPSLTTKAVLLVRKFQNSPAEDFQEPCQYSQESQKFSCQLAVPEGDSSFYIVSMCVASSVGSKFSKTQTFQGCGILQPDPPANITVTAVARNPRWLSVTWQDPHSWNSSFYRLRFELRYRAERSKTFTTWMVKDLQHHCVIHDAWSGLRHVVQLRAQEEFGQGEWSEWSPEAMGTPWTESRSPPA
Sequence of hyper-IL-6 (H-IL-6), a fusion protein comprising IL-6+sIL-6R (P05231 30-212 limits assumed, chain 2 of 2, further chain): as the sequence (P05231 30-212 limits assumed, chain 1 of 2) above
Sequence of sgp130TagPEG (PEGylated sgp130Tag / sgp130(D1-D3)-His, forked PEG) (P40189 other isoform, or with tags, fused parts or gaps): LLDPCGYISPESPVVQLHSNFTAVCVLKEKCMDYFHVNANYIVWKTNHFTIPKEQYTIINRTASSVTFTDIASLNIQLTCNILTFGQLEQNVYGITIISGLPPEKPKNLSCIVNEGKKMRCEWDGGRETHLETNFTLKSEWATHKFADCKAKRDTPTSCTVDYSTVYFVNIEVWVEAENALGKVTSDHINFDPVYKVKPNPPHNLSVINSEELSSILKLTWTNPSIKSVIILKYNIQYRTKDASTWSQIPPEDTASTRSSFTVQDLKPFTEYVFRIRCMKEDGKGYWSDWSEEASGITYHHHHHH
Sequence of Human sgp130Fc (P40189 23-619 limits assumed): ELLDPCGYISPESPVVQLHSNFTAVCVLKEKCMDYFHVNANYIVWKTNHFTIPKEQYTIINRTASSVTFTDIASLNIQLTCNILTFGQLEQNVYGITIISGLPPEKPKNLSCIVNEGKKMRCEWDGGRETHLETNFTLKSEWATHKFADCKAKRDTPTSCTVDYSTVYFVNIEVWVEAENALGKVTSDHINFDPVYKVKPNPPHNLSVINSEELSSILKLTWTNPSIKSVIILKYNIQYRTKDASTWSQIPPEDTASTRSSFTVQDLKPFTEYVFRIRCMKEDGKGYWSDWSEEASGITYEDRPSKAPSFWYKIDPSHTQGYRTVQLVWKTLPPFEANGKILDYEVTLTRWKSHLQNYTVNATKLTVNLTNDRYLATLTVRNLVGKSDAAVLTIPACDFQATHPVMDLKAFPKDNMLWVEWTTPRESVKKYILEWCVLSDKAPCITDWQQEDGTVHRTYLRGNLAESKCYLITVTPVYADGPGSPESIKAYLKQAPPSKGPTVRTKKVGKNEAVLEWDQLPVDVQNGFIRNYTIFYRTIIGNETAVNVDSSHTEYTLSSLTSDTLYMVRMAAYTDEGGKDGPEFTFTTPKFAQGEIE

Human sgp130Fc (from UniProt P40189 23-619) (Fc fusion)
STAT3 activity (relative luciferase activity, pSTAT3-TA-Luc reporter in BAF/gp130 cells) at 10 ug/ml inhibitor, 5 ng/ml H-IL-6 (% of activity with H-IL-6 alone) [1]: 26

sgp130TagPEG (PEGylated sgp130Tag / sgp130(D1-D3)-His, forked PEG) (from UniProt P40189 24-322) (receptor)
STAT3 activity (relative luciferase activity, pSTAT3-TA-Luc reporter in BAF/gp130 cells) at 10 ug/ml inhibitor, 5 ng/ml H-IL-6 (% of activity with H-IL-6 alone) [1]: 19
concentration giving half-maximal activation of STAT3 (H-IL-6-induced, luciferase reporter in BAF/gp130 cells) [1]: 2.5 µg/mL
efficiency relative to sgp130Fc in inhibition of H-IL-6-induced STAT3 activation (fold vs sgp130Fc) [1]: 2 to 3
factor of improvement over sgp130Fc in inhibition of BAF/gp130 proliferation (fold vs sgp130Fc) [1]: 1.5 to 3
half-maximal [3H]-thymidine incorporation of BAF/gp130 cells (proliferation) [1]: 1 to 5 ng/mL
factor of improvement over sgp130Fc in inhibition of BAF/gp130 proliferation (fold vs sgp130Fc) [2]: 1.5 to 3
half-maximal [3H]-thymidine incorporation of BAF/gp130 cells (proliferation) [2]: 1 to 5 ng/mL
